According to patent publication US20220211858A1, “TUBULAR SUPRAMOLECULAR POLYMERS” (priority 2019, published 2022):
Like-named read-outs stand apart in the source and are kept apart here.

Columns and labels:
[1] = Zeta potential measurement; type: physicochemical
Protocol: TT solutions of 200 μM in 1×-DPBS buffer (pH=7.4) were prepared by directly mixing identical volumes of a 400 μM aqueous TT solution and 2×-DPBS buffer (pH=7.4). In some embodiments, solutions at a concentration of 2 mM in PBS buffer (pH=7.4) were prepared and aged overnight prior to zeta potential measurement. TT solutions of 200 μM in 1×-DPBS buffer (pH=5.0) were prepared by mixing identical volumes of a 400 μM aqueous TT solution and 2×-DPBS buffer (pH=5.0), which was pretreated with 6 M HCl. The zeta potential measurements were performed on a Zetasizer Nano ZS90 (Malvern Instruments Ltd., UK). The prepared solutions were loaded in capillary cells and equilibrated for 2 min prior to measurement. The average values and their standard deviations are calculated from three replicate measurements. The zeta potential of the assembled structures was obtained by measuring the electrophoretic movement of the nanostructures under the applied electric field, where the movement velocity is determined by phase analysis light scattering. Variations of the zeta potential value over time were determined by measuring the solutions at different aging time points (1, 2, 4 and 7 days) and are plotted in FIG. 10.

[2] = CD measurement of SAPD stability in plasma/serum environments; type: physicochemical, rat; conditions: for change of CD absorptions versus aqueous solution: 200 μM in rat plasma, FBS, mice plasma, aged overnight
Protocol: CD measurement of SAPDs in physiological environments. Stock solutions of SAPDs were prepared at 2 mM and aged overnight. The solutions were diluted to 200 μM in 10% fetal bovine serum (FBS), 10% mice plasma and 10% rat plasma, aged overnight before CD measurement. To study the kinetic stability of the assembled SAPDs upon dilution, the stock solutions of SAPD 1 and 2 were diluted to 100 μM, 50 μM, 25 μM, 10 μM, and 5 μM in 10% rat plasma. The CD spectra were recorded at 5 min, 1 h, 4 h, and 12 h. All the CD spectra were recorded from 300 to 450 nm using a 1 mm path length quartz cell. The spectra were collected and normalized from ellipticity (mdeg) to molar ellipticity (deg·cm2·dmol^−1).
Stability of SAPDs in Protein Environments. The interactions of nanoparticles with serum proteins are known to impact the disassociation of supramolecular assemblies in biologically relevant environment. To assess the stability of assembled SAPDs in more complex biological media, we performed CD experiments to investigate their long-term stability in various serum environments. SAPDs solutions (2 mM) were diluted using rat plasma (FIG. 21C), fetal bovine serum (FBS), and mice plasma to yield a final concentration of 200 μM, which were then aged overnight before CD measurement was taken. […] We also performed experiments to assess their kinetic stability upon plasma dilution, mimicking the dissociation process of SPs after intravenous injection. Solutions of SAPD 1 and 2 (2 mM) were diluted to 100 μM, 50 μM, 25 μM, 10 μM, and 5 μM in rat plasma, and time-dependent CD spectra were recorded at 5 min, 1 h, 4 h, and 12 h. […] At 12 h, the decrease reached 22% and 33%, respectively.

[3] = Drug release and chemical stability of SAPDs in PBS with or without GSH; type: physicochemical; conditions: for prodrug degraded / conjugates remaining intact: 200 μM; for prodrug degraded: 37° C., 10 mM GSH, within 5 min; for conjugates remaining intact / remaining drugs: without GSH; for conjugates remaining intact: 120 h; for remaining drugs: 96 h
Protocol: Drug release and chemical stability studies of SAPDs. Drug release studies of four SAPDs were performed at a concentration of 200 μM in PBS buffer with or without the reducing agent glutathione (GSH). Briefly, 400 μM stock solutions of SAPDs in water were prepared and aged overnight. Stock solutions containing 2×PBS (20 mM) with or without 20 mM GSH were prepared 1 h before the experiment, and the pH was tuned to 7.4 with NaOH. The prodrug solutions were further diluted to 200 μM with 20 mM (2×) PBS buffer with or without GSH (20 mM) to give final solutions of 200 μM prodrug, 10 mM PBS and with or without 10 mM GSH. Three replicates of each SAPD were prepared with or without GSH and were incubated at 37° C. Samples with GSH were collected at 0 min, 5 min, 10 min, 15 min, 30 min, 1 h and 2 h, while samples without GSH were collected at 0 h, 6 h, 12 h, 24 h, 48 h, 72 h, 96 h and 120 h. To prevent further reaction after sample collection, the collected samples (50 μL each point) were acidified by adding 0.2 μL of 2M HCl, frozen with liquid nitrogen and stored at −30° C. The release profile was determined by analytical RP-HPLC using the following conditions: Varian Pursuit XRs C18 (5 μm, 150×4.6 mm); 362 nm detection wavelength; 1 mL/min flow rate; the gradient began at 15% to 85% acetonitrile containing 0.1% TFA by 15 min and back to initial gradient at 18 min. The calculated data points were plotted as a percentage of the total CPT concentration against time. Representative HPLC traces over time were also integrated for comparison.

[4] = Drug release of SAPDs in rat plasma; type: in vitro ADME; conditions: without GSH, read-out: remaining drugs
Protocol: The drug release in rat plasma (10%, v/v) were performed using similar protocols as those in PBS. To determine the amount of SAPDs and free CPT in each sample, 50 μL of sample was mixed with 200 μL acetonitrile (containing 0.1% TFA) and sonicated for 1 min. The supernatants were collected using centrifugation. All samples were filtered through a 0.22 μm membrane before analysis by a UPLC system (Waters ACQuity™ Ultra Performance LC) equipped with a reverse-phase column (ACQuity UPLC@BEH, C18, 1.7 μm 2.1×150 mm) and a fluorescence detector (ACQuity FLR, Ex/Em=362/430 nm). The column was flushed with a mixture of water (0.1% TFA) and acetonitrile (0.1% TFA) at 0.3 mL/min with the following gradient: 5% acetonitrile (0-1 min), 5-95% acetonitrile (1-5 min), 95% acetonitrile (5-8 min), 95-5% acetonitrile (8-9 min), and 5% acetonitrile (9-10 min). Peaks of SAPDs and free CPT were monitored and recorded, and the concentrations were calculated by comparing with standard curves.

[5] = system: HT-29 cells; experiment: Antitumor efficacy of SAPDs at near MTD on a HT-29 tumor model; conditions: for mean tumor volume: day 28, SAPD 1 12 mg/kg, SAPD 2-4 36 mg/kg i.v. days 1, 5, 9, irinotecan 100 mg/kg i.p. days 1, 8, 15
Protocol: Antitumor efficacy study of SAPDs at near MTD on a HT-29 tumor model. HT-29 tumor model was established as described above. When the averaged tumor size reached 70-110 mm^3, mice were randomly divided into six groups (n=5 for each group). Four different SAPDs were all i.v. dosed at near or slightly lower than their estimated MTDs. […] The irinotecan (i.p. injection, 100 mg/kg at days 1, 8 and 15) and the PBS groups were used as controls. All other protocols were similar to those in the above-mentioned efficacy study.

| Structure (SMILES) | ζ-Potential ([1]; assembled SAPDs in PBS buffer) [mV] | change of CD absorptions versus aqueous solution [2] | prodrug degraded [3] [%] | conjugates remaining intact [3] [%] | remaining drugs [3] [%] | remaining at 96 h ([4]; rat plasma (10%, v/v)) [%] | treatment related death ([5]; 36 mg/kg i.v. days 1, 5, 9, n=5) | mean tumor volume [5] [mm^3] | ζ-Potential ([1]; 1×-DPBS buffer, pH 5.0, 200 μM) [mV] | ζ-Potential ([1]; 1×-DPBS buffer, pH 7.4, 200 μM) [mV] | drop of CD absorption at 389 nm ([2]; 5 μM in rat plasma, 5 min) [%] | drop of CD absorption at 389 nm ([2]; 5 μM in rat plasma, 12 h) [%] | drop of CD absorption at 389 nm ([2]; 10 μM in rat plasma, 5 min) [%] | drop of CD absorption at 389 nm ([2]; 10 μM in rat plasma, 12 h) [%] | stability upon dilution over time ([2]; rat plasma, concentrations above 25 μM) | remaining at 96 h [4] [%] |
| --- | --- | --- | --- | --- | --- | --- | --- | --- | --- | --- | --- | --- | --- | --- | --- | --- |
| CC[C@]1(OC(=O)OCCSSC[C@@H](NC(C)=O)C(=O)N[C@@H](CCCCNC(=O)[C@@H](CSSCCOC(=O)O[C@]2(CC)C(=O)OCc3c2cc2n(c3=O)Cc3cc4ccccc4nc3-2)NC(C)=O)C(=O)N[C@@H](CCCCNC(=O)CCOCCOCCOCCOCCOC)C(=O)N[C@@H](CCCCNC(=O)CCOCCOCCOCCOCCOC)C(=O)N[C@@H](CCCCNC(=O)CCOCCOCCOCCOCCOC)C(=O)N[C@@H](CCCCNC(=O)CCOCCOCCOCCOCCOC)C(N)=O)C(=O)OCc2c1cc1n(c2=O)Cc2cc3ccccc3nc2-1 [SAPD 2] | −7.4 | no noticeable changes | 45 | 87 | 86 | 78 | one treatement related death | 330 |  |  |  |  |  |  |  |  |
| CC[C@]1(OC(=O)OCCSSC[C@@H](NC(C)=O)C(=O)N[C@@H](CCCCNC(=O)[C@@H](CSSCCOC(=O)O[C@]2(CC)C(=O)OCc3c2cc2n(c3=O)Cc3cc4ccccc4nc3-2)NC(C)=O)C(=O)N[C@@H](CCCCNC(=O)CCOCCOCCOCCOCCOC)C(=O)N[C@@H](CCCCNC(=O)CCOCCOCCOCCOCCOC)C(=O)N[C@@H](CCCCNC(=O)CCOCCOCCOCCOCCOC)C(=O)N[C@@H](CCCCNC(=O)CCOCCOCCOCCOCCOC)C(=O)N[C@@H](CCCCNC(=O)CCOCCOCCOCCOCCOC)C(=O)N[C@@H](CCCCNC(=O)CCOCCOCCOCCOCCOC)C(N)=O)C(=O)OCc2c1cc1n(c2=O)Cc2cc3ccccc3nc2-1 [SAPD 3] | −6.5 | some slight changes | 93 |  | 63 | 15 |  | 322 |  |  |  |  |  |  |  |  |
| CC[C@]1(OC(=O)OCCSSC[C@@H](NC(C)=O)C(=O)N[C@@H](CCCCNC(=O)[C@@H](CSSCCOC(=O)O[C@]2(CC)C(=O)OCc3c2cc2n(c3=O)Cc3cc4ccccc4nc3-2)NC(C)=O)C(=O)N[C@@H](CCCCNC(=O)CCOCCOCCOCCOCCOC)C(=O)N[C@@H](CCCCNC(=O)CCOCCOCCOCCOCCOC)C(=O)N[C@@H](CCCCNC(=O)CCOCCOCCOCCOCCOC)C(=O)N[C@@H](CCCCNC(=O)CCOCCOCCOCCOCCOC)C(=O)N[C@@H](CCCCNC(=O)CCOCCOCCOCCOCCOC)C(=O)N[C@@H](CCCCNC(=O)CCOCCOCCOCCOCCOC)C(=O)N[C@@H](CCCCNC(=O)CCOCCOCCOCCOCCOC)C(=O)N[C@@H](CCCCNC(=O)CCOCCOCCOCCOCCOC)C(N)=O)C(=O)OCc2c1cc1n(c2=O)Cc2cc3ccccc3nc2-1 [SAPD 4] | −5.9 | some slight changes | 92 |  | 61 | 18 |  | 408 |  |  |  |  |  |  |  |  |
| CC[C@]1(OC(=O)OCCSSC[C@@H](NC(C)=O)C(=O)N[C@@H](CCCCNC(=O)[C@@H](CSSCCOC(=O)O[C@]2(CC)C(=O)OCc3c2cc2n(c3=O)Cc3cc4ccccc4nc3-2)NC(C)=O)C(=O)N[C@@H](CCCCNC(=O)CCOCCOCCOCCOCCOC)C(=O)N[C@@H](CCCCNC(=O)CCOCCOCCOCCOCCOC)C(N)=O)C(=O)OCc2c1cc1n(c2=O)Cc2cc3ccccc3nc2-1 [TT 1] | −6.5 | no noticeable changes | 8 | 96 | 95 |  |  | 172 | −5 | −5 | 15 | 33 | 10 | 22 | highly stable | 89 |
